The values below come from paper PMC11094781 (Protein Science : A Publication of the Protein Society, 2024).

The target of one assay is T1, TkTusA (Thioalkalivibrio sp. K90mix, UniProt D3SF79).
T1 sequence (D3SF79 2-76): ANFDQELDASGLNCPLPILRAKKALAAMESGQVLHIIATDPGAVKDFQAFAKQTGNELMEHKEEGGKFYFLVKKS
As to the kind of experiment: MALDI-TOF mass shift. The following applies: […] tetrathionate, […] Tris-HCl pH […]; covalent. Format: biochemical.

Assay [1] concerns the target DsrE3B from Thioalkalivibrio sp. K90mix (Thioalkalivibrio sp. K90mix). Put plainly: SEC. For orientation: SEC sorts molecules by how far they enter the pores of the column.
Assay [2] deals with DsrE3C from Hyphomicrobium denitrificans (Hyphomicrobium denitrificans). Put plainly: SEC.

For the compound `O=S(=O)(O)SSS(=O)(=O)O` [tetrathionate], the MALDI-TOF mass shift entry at TkTusA is recorded as “TusA proteins from bacteria that were examined in this study displayed reaction with tetrathionate”.
Take “DsrE3B from Thioalkalivibrio sp. K90mix (natural protein)”: the stoichiometry N (commonly the number of molecules, sites or subunits per partner or assembly) in assay [1] is 3.
In the case of “DsrE3C from Hyphomicrobium denitrificans (natural protein)”, the stoichiometry N in assay [2] is 3.
